From patent US10058586B2, “Use of human small leucine zipper protein in adipocyte differentiation procedure” (Korea University Research and Business Foundation, priority 2013, dated 2018)

Legend:
[1] = target: T1, HDAC3 (Mus musculus, UniProt O88895); assay: Fluorescence microscopy, subcellular localization of sLZIP and HDAC3 in C3H10T1/2 cells; assay type: cell-based; conditions: GFP-sLZIP, anti-HDAC3
T1 construct: endogenous in cells; host or cells: C3H10T1/2 cells expressing GFP-sLZIP
T1 sequence (O88895 1-428): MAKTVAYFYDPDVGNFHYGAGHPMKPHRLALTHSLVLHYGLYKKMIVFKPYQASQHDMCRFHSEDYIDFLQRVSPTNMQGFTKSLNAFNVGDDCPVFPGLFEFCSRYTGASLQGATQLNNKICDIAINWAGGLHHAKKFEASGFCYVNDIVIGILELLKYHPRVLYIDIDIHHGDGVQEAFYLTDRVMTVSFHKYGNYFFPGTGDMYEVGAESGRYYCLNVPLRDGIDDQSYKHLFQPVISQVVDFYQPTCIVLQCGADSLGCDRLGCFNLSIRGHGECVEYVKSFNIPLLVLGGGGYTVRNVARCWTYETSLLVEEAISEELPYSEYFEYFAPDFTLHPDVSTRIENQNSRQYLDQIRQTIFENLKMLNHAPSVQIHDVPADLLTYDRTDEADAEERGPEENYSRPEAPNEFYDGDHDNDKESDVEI
Method: C3H10T1/2 cells were transiently ci-transfected with Flag-sLZIP, GFP-PPARγ2 or GFP-sLZIP, and HDAC3 was grown on cover slip. After 24 hours, the cells were fixed with 4% paraformaldehyde for 10 minutes and permeabilized 0.2% Triton-X 100 for 5 minutes. The cells were incubated with 1% BSA for one hour, and then incubated with anti-Flag and anti-HDAC3 antibodies overnight at 4° C. The cells were washed with PBS, and then were incubated with Texas Red-labeled antibodies for 2 hours. A cover slide was washed with PBS, and mounted on and examined using a LSM 510 META confocal microscopy (Carl Zeiss, Jena, Germany).
For this purpose, 293T cells were transiently transfected with PPARγ2 (0.5 μg), (3-galactosidase (0.1 μg), FABP4-Luc reporter genes (0.2 μg) and sLZIP (0.1 μg). After the transfection, the cells were stimulated with or without 10 nM of RZD and 10 nM of TSA (FIG. 4A). A promoter activity was measured according to luciferase analysis. In the 293T cells, FABP4-Luc reporter genes, sLZIP, PPAR, β-galactosidase, and 100 nM of si-RNAs and HDAC1, 2, 3 and 8 for a control group were expressed. After the transfection, the cells were stimulated with or without 10 nM of RZD, and a promoter activity was measured (FIG. 4B). […] A protein complex was analyzed in SDS-PAGE, and anti-GST and anti-Flag antibodies were used for immunoblotting (FIG. 4E). *, P<0.05; **, P<0.01

[2] = test system: NCoR1; assay: Immunoprecipitation with anti-NCoR1 antibodies in 293T cells expressing Flag-sLZIP; assay type: binding; conditions: 10 nM RZD for 24 hours
Method: 293T cells were obtained and washed with cold PBS. The cells were re-suspended in an IP lysis buffer [25 mM of Tris-HCl (pH 7.4), 150 mM of NaCl, 1 mM of EDTA, 1% NP-40 and 5% glycerol, and a protease inhibitor]. A suspension was centrifuged at 16,000×g for 20 minutes at 4° C. Supernatants were collected and incubated with 0.5 μg of appropriate antibodies and 25 μl of protein A/G-agarose or a GST Sepharose 4B bead for 24 hours at 4° C. A protein complex was centrifuged at 1,000×g with a cold IP lysis buffer for 1 minute and washed five times. The final pellet was re-suspended in 50 μl of an SDS-sample buffer containing 5% β-mercaptoethanol and heated for 10 minutes at 100° C. A protein sample was isolated in SDS-PAGE (8 to 10%) and transferred to nitrocellulose membranes. Co-precipitated proteins were detected according to western blotting using specific antibodies.
For this purpose, 293T cells were transfected with GST-PPARγ2 and Flag-sLZIP and were treated or not treated with 10 nM of RZD for 24 hours. […] A protein complex was analyzed in SDS-PAGE, and immunoblotted with anti-GST and anti-Flag antibodies. […] The cell lysates were GST pull-down analyzed (FIG. 5C). […] The cell lysates were GST pull-down analyzed (FIG. 5D). […] A protein complex was analyzed in SDS-PAGE, and then immunoblotted with anti-NCoR1 and anti-Flag antibodies (FIG. 5E). […]

B1: sLZIP: human small leucine-zipper protein, isoform of LZIP, 354 amino acids, no transmembrane domain; GenBank FJ263669, SEQ ID NO: 1 (protein, listed as Homo sapiens)
chain: MELELDAGDQDLLAFLLEESGDLGTAPDEAVRAPLDWALPLSEVPSDWEVDDLLCSLLSPPASLNILSSSNPCLVHHDHTYSLPRETVSMDLESESCRKEGTQMTPQHMEELAEQEIARLVLTDEEKSLLEKEGLILPETLPLTKTEEQILKRVRRKIRNKRSAQESRRKKKVYVGGLESRVLKYTAQNMELQNKVQLLEEQNLSLLDQLRKLQAMVIEISNKTSSSSMYSSDTRGSLPAEHGVLSRQLRALPSEDPYQLELPALQSEVPKDSTHQWLDGSDCVLQAPGNTSCLLHYMPQAPSAEPPLEWPFPDLFSEPLCRGPILPLQANLTRKGGWLPTGSPSVILQDRYSG
subcellular localization of sLZIP and HDAC3 [1]: localized in the nucleus together with HDAC3 | interaction with NCoR1 (immunoprecipitation) [2]: NCoR1 was slightly dissociated from sLZIP
